{"source": "paper PMC3698143", "about": "“GRG5/AES Interacts with T-Cell Factor 4 (TCF4) and Downregulates Wnt Signaling in Human Cells and Zebrafish Embryos” (PLoS ONE, 2013)", "binders": {"B1": {"name": "HA-epitope-tagged GRG5/AES (natural protein, human, UniProt Q08117 1-197, looked up)", "chain": "MMFPQSRHSGSSHLPQQLKFTTSDSCDRIKDEFQLLQAQYHSLKLECDKLASEKSEMQRHYVMYYEMSYGLNIEMHKQAEIVKRLNGICAQVLPYLSQEHQQQVLGAIERAKQVTAPELNSIIRQQLQAHQLSQLQALALPLTPLPVGLQPPSLPAVSAGTGLLSLSALGSQAHLSKEDKNGHDGDTHQEDDGEKSD"}}, "target": "Myc-tagged full-length TCF4 (human, UniProt Q9NQB0-8 1-596)", "sequence (Q9NQB0 other isoform, or with tags, fused parts or gaps)": "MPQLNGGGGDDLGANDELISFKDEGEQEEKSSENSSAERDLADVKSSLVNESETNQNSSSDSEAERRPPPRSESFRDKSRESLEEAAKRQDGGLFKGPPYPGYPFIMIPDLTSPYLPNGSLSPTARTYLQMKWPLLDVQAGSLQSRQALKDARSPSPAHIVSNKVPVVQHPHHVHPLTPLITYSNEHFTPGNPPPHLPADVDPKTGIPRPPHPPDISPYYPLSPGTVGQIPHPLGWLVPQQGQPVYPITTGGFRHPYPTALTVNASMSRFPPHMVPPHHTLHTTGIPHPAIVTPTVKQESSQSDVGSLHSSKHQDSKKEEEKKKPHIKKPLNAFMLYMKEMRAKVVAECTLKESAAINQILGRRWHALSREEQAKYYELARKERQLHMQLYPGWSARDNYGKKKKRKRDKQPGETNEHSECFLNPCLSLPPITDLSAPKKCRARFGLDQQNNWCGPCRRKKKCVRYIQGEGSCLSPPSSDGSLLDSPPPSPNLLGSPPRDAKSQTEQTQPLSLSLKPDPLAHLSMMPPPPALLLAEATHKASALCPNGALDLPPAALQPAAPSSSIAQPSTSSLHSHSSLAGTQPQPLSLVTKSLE", "experiment": "cell-based or functional assay", "data": [{"binder": "B1", "values": [{"measurement": "TCF-Luc luciferase reporter in HEK293 cells with transfected β-catenin: repression on co-transfection of GRG5/AES and dnTCF4 plasmids (0.4 µg each), against a 6.3-fold additive effect of each alone", "value": 22.5, "unit": "fold"}]}]}
